Data as given in PMC4359615 (Journal of Structural Biology, 2015).

B1: A49 subunit of RNA polymerase I (natural protein, S. cerevisiae)
chain: MSVKRSVSEIEIESVQDQPSVAVGSFFKGFRAPSDTTFDLYKKKKSEKDEFVLHGENERLEYEGYTDSSSQASNQYVVGLFNPEKKSIQLYKAPVLVSKVVSKSSKNLRGPKIKSKSDTRPSALRNALGEAFGTKKAKKAIADLERNRIDSDKLTDSAIDIVDSVRTASKDLPTRAQLDEITSNDRPTPLANIDATDVEQIYPIESIIPKKELQFIRVSSILKEADKEKKLELFPYQNNSKYVAKKLDSLTQPSQMTKLQLLYYLSLLLGVYENRRVNNKTKLLERLNSPPEILVDGILSRFTVIKPGQFGRSKDRSYFIDPQNEDKILCYILAIIMHLDNFIVEITPLAHELNLKPSKVVSLFRVLGAIVKGATVAQAEAFGIPKSTAASYKIATMKVPFKLPEMTRRGRGPRR
B2: A135 subunit of RNA polymerase I (natural protein, S. cerevisiae)
chain: MSKVIKPPGQARTADFRTLERESRFINPPKDKSAFPLLQEAVQPHIGSFNALTEGPDGGLLNLGVKDIGEKVIFDGKPLNSEDEISNSGYLGNKLSVSVEQVSIAKPMSNDGVSSAVERKVYPSESRQRLTSYRGKLLLKLKWSVNNGEENLFEVRDCGGLPVMLQSNRCHLNKMSPYELVQHKEESDEIGGYFIVNGIEKLIRMLIVQRRNHPMAIIRPSFANRGASYSHYGIQIRSVRPDQTSQTNVLHYLNDGQVTFRFSWRKNEYLVPVVMILKALCHTSDREIFDGIIGNDVKDSFLTDRLELLLRGFKKRYPHLQNRTQVLQYLGDKFRVVFQASPDQSDLEVGQEVLDRIVLVHLGKDGSQDKFRMLLFMIRKLYSLVAGECSPDNPDATQHQEVLLGGFLYGMILKEKIDEYLQNIIAQVRMDINRGMAINFKDKRYMSRVLMRVNENIGSKMQYFLSTGNLVSQSGLDLQQVSGYTVVAEKINFYRFISHFRMVHRGSFFAQLKTTTVRKLLPESWGFLCPVHTPDGSPCGLLNHFAHKCRISTQQSDVSRIPSILYSLGVAPASHTFAAGPSLCCVQIDGKIIGWVSHEQGKIIADTLRYWKVEGKTPGLPIDLEIGYVPPSTRGQYPGLYLFGGHSRMLRPVRYLPLDKEDIVGPFEQVYMNIAVTPQEIQNNVHTHVEFTPTNILSILANLTPFSDFNQSPRNMYQCQMGKQTMGTPGVALCHRSDNKLYRLQTGQTPIVKANLYDDYGMDNFPNGFNAVVAVISYTGYDMDDAMIINKSADERGFGYGTMYKTEKVDLALNRNRGDPITQHFGFGNDEWPKEWLEKLDEDGLPYIGTYVEEGDPICAYFDDTLNKTKIKTYHSSEPAYIEEVNLIGDESNKFQELQTVSIKYRIRRTPQIGDKFSSRHGQKGVCSRKWPTIDMPFSETGIQPDIIINPHAFPSRMTIGMFVESLAGKAGALHGIAQDSTPWIFNEDDTPADYFGEQLAKAGYNYHGNEPMYSGATGEELRADIYVGVVYYQRLRHMVNDKFQVRSTGPVNSLTMQPVKGRKRHGGIRVGEMERDALIGHGTSFLLQDRLLNSSDYTQASVCRECGSILTTQQSVPRIGSISTVCCRRCSMRFEDAKKLLTKSEDGEKIFIDDSQIWEDGQGNKFVGGNETTTVAIPFVLKYLDSELSAMGIRLRYNVEPK

Tests used:
[1] = biological target: A190 subunit of RNA polymerase I (S. cerevisiae, UniProt P10964 1-1664); assay: cross-linking
[2] = biological target: B2; assay: cross-linking

A190 subunit of RNA polymerase I, sequence (P10964 whole entry): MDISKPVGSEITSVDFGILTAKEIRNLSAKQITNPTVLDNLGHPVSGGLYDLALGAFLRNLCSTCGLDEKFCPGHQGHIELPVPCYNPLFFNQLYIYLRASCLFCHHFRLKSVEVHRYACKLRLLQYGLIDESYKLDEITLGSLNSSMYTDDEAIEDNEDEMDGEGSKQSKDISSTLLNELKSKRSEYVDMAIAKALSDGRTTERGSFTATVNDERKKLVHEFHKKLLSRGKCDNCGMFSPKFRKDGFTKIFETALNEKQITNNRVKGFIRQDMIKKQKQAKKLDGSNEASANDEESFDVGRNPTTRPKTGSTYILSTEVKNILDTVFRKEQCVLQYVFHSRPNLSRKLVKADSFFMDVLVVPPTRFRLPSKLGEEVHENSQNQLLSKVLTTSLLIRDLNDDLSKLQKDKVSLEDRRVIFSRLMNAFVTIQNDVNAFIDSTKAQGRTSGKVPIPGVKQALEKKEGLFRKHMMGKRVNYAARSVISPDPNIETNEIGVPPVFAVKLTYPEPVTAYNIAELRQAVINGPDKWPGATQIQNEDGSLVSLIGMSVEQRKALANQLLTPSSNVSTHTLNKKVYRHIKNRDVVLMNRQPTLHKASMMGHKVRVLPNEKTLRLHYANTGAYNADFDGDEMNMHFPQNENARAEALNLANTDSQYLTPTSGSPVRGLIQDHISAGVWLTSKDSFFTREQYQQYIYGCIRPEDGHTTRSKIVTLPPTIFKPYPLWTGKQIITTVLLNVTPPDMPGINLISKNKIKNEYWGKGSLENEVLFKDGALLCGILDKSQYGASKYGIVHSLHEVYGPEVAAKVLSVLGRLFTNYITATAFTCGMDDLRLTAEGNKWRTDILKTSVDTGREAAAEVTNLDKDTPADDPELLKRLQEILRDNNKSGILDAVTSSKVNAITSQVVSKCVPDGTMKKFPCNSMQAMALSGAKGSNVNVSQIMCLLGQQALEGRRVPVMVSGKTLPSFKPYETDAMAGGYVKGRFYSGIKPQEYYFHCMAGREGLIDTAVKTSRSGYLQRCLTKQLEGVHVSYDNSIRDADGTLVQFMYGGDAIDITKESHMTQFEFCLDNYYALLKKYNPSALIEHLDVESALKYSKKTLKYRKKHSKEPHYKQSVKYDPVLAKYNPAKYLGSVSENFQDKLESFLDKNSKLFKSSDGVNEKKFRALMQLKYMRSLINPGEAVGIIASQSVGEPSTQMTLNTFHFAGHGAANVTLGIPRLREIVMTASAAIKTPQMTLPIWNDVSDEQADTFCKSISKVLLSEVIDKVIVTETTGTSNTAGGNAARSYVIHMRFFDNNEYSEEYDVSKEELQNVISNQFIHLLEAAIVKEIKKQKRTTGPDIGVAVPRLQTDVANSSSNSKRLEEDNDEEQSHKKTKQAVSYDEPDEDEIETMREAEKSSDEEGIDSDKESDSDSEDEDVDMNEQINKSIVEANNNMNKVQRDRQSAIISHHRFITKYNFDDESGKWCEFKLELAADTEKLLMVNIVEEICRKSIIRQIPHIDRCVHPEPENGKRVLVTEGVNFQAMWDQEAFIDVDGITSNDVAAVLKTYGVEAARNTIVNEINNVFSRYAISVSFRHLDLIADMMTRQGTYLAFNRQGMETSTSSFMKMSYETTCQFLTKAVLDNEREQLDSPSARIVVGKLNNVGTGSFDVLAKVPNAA

Binder | binding result [1] | binding result [2]
B1 | binds | binds
B2 | binds | –
